Experimental data from US20110093983A1, “ALGAL GLYCEROL-3 PHOSPHATE ACYLTRANSFERASE” (National Research Council of Canada, priority 2008, published 2011).
“Also recorded” adds a separate entry of the source.

Experiments:
Brassica napus = experiment: Fatty acid analysis of T1 seeds from TpGPAT transgenic Brassica napus; type: in vivo; conditions: 5 transgenic Brassica napus events; wild-type 4.27-4.64%
Procedure: FIG. 6 graphically depicts the results of the analysis of the fatty acid 16:0 content of T1 seeds from TpGPAT transgenic Brassica napus. Fatty acid analysis was performed on TpGPAT transformed B. napus seeds. Fatty acid composition (as molar percentage) was determined in the seed oil extracted from T1 seeds of five independent TpGPAT:pSE transformed Brassica napus events (GPAT1, 3, 4, 7 and 12). Wild-type B. napus was used as a control.
The full length coding region of the TpGPAT gene was amplified using pfu DNA polymerase and primers designed with two restriction sites (KpnI and XbaI) added for subsequent cloning. Then, the PCR product was digested and inserted in a plant transformation vector (pSE129A) under the control of a seed-specific promoter (Napin). The binary vector was introduced by electroporation into Agrobacterium tumefaciens strain GV3101 containing helper plasmid pMP90 (Koncz and Schell, 1986).
Brassica napus 5-day-old hypocotyls were also transformed with Agrobacterium containing the TpGPAT/pSE129A construct. Transgenic T0 plants were regenerated, selected for resistance to kanamycin and grown in soil. Individual plants were bagged to allow self-pollination. Presence of the TpGPAT and Kan genes in the resistant plants was verified by PCR with the appropriate primers in 18 independent events. T1 seeds from the first set of 5 transgenic events were harvested and analyzed. […]

[1] = GPAT activity assay of microsomal membrane fractions from yeast gat1 mutant expressing TpGPAT; type: biochemical, Saccharomyces cerevisiae
Procedure: FIG. 2 depicts GPAT activity of TpGPAT1 expressed in yeast gat1 mutant. The microsomal membrane fractions prepared from lysates of the induced yeast cells harboring TpGPAT1 or empty vector pYES2.1 were assayed for GPAT activity with 400 μM [^14C]glycerol 3-phosphate (2.5 nCi/nmol), 45 μM palmitoyl-CoA, 75 mM Tris-HCl, pH 7.5, 1 mM DTT, and 2 mM MgCl2 for 10 min at room temperature. After extraction of the phospholipid products, the radioactivity was measured by scintillation count.
FIG. 3 depicts substrate specificity of TpGPAT1. The microsomal membrane fractions prepared from lysates of the induced yeast cells harboring TpGPAT1 or empty vector pYES2.1 were assayed for GPAT activity with 400 μM [^14C]glycerol 3-phosphate (2.5 nCi/nmol) and different acyl-CoAs as acyl donor. After extraction of the phospholipid products, the radioactivity was measured by scintillation count. […]
Enzyme Assays: GPAT assays were conducted at 30° C. for 10 min. in a 200-pL reaction mixture containing 40 mM Hepes, pH 7.0, 400 pM ^14C-glycerol-3-phosphate (2.5 nCi/nmol), 67.5 pM palmitoyl-CoA and/or stearoyl-CoA or other fatty acyl donors, 1 mM DTT, 2 mM MgCl2, and 2.5 mg/mL BSA unless stated otherwise. […] The formed products were subjected to scintillation counting for radioactivity and thin layer chromatography analysis as described. […]

B1: TpGPAT1: membrane-bound glycerol-3-phosphate acyltransferase from T. pseudonana, 674 amino acids, SEQ ID NO:2 (nucleotide SEQ ID NO:1) (protein, listed as Thalassiosira pseudonana)
chain: MGVEKKGTMMSELDYTKAQLAFFYIVVLLSLDMLNPVKIFLHVFPAIKSWHIATFAIACMSYIFIVNLRELLYFATKVFFHSILSIFFNDVTVVGRENIPSHGPVIFTSNHANQFMDGLMIMCTCQRTISYLVADKSWNRPIIGHLAWMMGGVPVKRAQDSACKGTGKISIDLNALAGSDAVINVVGKGTSFTSQIKAGDKIRLPNNAIGIKVESIESDESMSLKVEDGVAEVLSSHPFPEYVTYDILPRIDQKDVYQNVLEKLASGGTIGIFPEGGSHDRTDLLPLKVGVALIAYSELEKDGINVPIVPVGLNYFRAHRFRGKATVEFGSPTYIEPSTLADYKKGGADKRRVCNDLLARIENSMRSVIVSVPDFETLQTIHAARRLYRQDGRNETAEQRQDMGRRFAEGYKRVLLQLGGEPPEEWLSLQSRILAYQKELNELGIRDYQVVGLDHEEVELGSESQGHSKADTVLHRMNVFGHIVHLFVIAVLAALPAMLLNLPVGLASRIYSNRRRKVALAASKVKVKGYDVMLSERVLACIVLVPSLWVVYGLLLSLFTSLDGPSLAVCFTCFPLFSYWSIMATESGMVDIKDLRPYVMRMIPSARRRLAALPATRKALRSDLRAMIKKIGPSLGDIYYEKDLNWQKIQMETKRMSMEELDPAQKDEAAKKEE
Question: For B1, which “16:0 percentage in T1 seeds” value (Brassica napus) is on record?
Answer: Its value is 4.64-6.67%.

Question: And the “Substrate specificity for fatty acyl donors” value ([1]; different acyl-CoAs as acyl donors (14:0, 16:0, 16:1, 18:0, 18:1, 22:6))?
Answer: The value was “highly specific for 16:0; also recorded: highest activity toward 16:0; also recorded: highly specific for saturated C16 fatty acids”.

Question: And the “GPAT activity versus control cells transformed with empty pYES2.1 vector” value ([1]; microsomal membrane fractions, yeast gat1, palmitoyl (16:0)-CoA as acyl donor)?
Answer: Its value is “about seven”.
